Laboratory results: patent US20250122303A1 (HUMMINGBIRD BIOSCIENCE PTE, published 2025)
Values belong to the binder of their own block, whether it stands above or below them.

Columns and labels:
[1] = target: T1, His-tagged FcγRIIIa (V158) (human, UniProt P08637 17-208); assay: BLI (Octet QK384), His-tagged FcgRIIIa (V158) on anti-Penta-HIS tips, antibody 500 nM to 15.6 nM in solution, global 1:1 fit
T1 construct: not shown: His tag
Experimental: (§1) All measurements were performed at 25° C. with agitation at 1000 rpm. […] Sensograms were referenced for buffer effects and then fitted using the Octet QK384 user software (Pall ForteBio, USA). Kinetic responses were subjected to a global fitting using a one site binding model to obtain values for association (Kₒₙ), dissociation (Koff) rate constants and the equilibrium dissociation constant (KD). Only curves that could be reliably fitted with the software (R²>0.90) were included in the analysis.

[2] = target: T2, His-tagged human HER3 (human, UniProt P21860 20-643); assay: BLI (Octet QK384), antibody on anti-human IgG capture tips, His-tagged human HER3 in solution, global one-site fit
T2 construct: Antigen of the BLI experiments and of the HER2-Fc dimerisation ELISA; also called HER3 His; not shown: His tag
Procedure, shortened: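 Steps: capture of anti-HER3 IgG1 (25 nM) on anti-human IgG tips; association and dissociation of human HER3 at 25° C, 1000 rpm; reference subtraction for buffer; global one-site fitting, retaining R²>0.90.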

[3] = target: T2, His-tagged human HER3; assay: BLI (Octet QK384), antibody on anti-human IgG capture tips, His-tagged human HER3 35-278 nM, global 1:1 fit
Experimental: as §1, with “The anti-HER3 antibody clones in IgG1 format were analysed for binding affinity to human HER3. Bio-Layer Interferometry (BLI) experiments were performed using the Octet QK384 system (ForteBio). anti-Human IgG Capture (AHC) Octet sensor tips (Pall ForteBio, USA) were used to anti-HER3 antibodies (25 nM). All” for “All”

[4] = target: T2, His-tagged human HER3; assay: BLI (Octet QK384), antibody on anti-human IgG capture tips, His-tagged human HER3 in solution, global 1:1 fit, R^2 = 0.9955, kon Error 5.62E+03; Response -0.0012 / 0.1507 / 0.3396 / 0.4384 at 35 / 69 / 139 / 278 nM
Experimental: as §1, with “The anti-HER3 antibody clones in IgG1 format were analysed for binding affinity to human HER3. Bio-Layer Interferometry (BLI) experiments were performed using the Octet QK384 system (ForteBio). anti-Human IgG Capture (AHC) Octet sensor tips (Pall ForteBio, USA) were used to anti-HER3 antibodies (25 nM). All” for “All”

[5] = target: T2, His-tagged human HER3; assay: BLI (Octet QK384), antibody on anti-human IgG capture tips, His-tagged human HER3 35-278 nM, global 1:1 fit; kdis Error 1.27E-04
Experimental: as §1, with “The anti-HER3 antibody clones in IgG1 format were analysed for binding affinity to human HER3. Bio-Layer Interferometry (BLI) experiments were performed using the Octet QK384 system (ForteBio). anti-Human IgG Capture (AHC) Octet sensor tips (Pall ForteBio, USA) were used to anti-HER3 antibodies (25 nM). All” for “All”

[6] = target: T2, His-tagged human HER3; assay: BLI (Octet QK384), antibody on anti-human IgG capture tips, His-tagged human HER3 in solution, global 1:1 fit, R^2 = 0.9957, kon Error 3.75E+03; Response 0.0006 / 0.0697 / 0.1929 / 0.3524 at 35 / 69 / 139 / 278 nM
Experimental: as §1, with “The anti-HER3 antibody clones in IgG1 format were analysed for binding affinity to human HER3. Bio-Layer Interferometry (BLI) experiments were performed using the Octet QK384 system (ForteBio). anti-Human IgG Capture (AHC) Octet sensor tips (Pall ForteBio, USA) were used to anti-HER3 antibodies (25 nM). All” for “All”

[7] = target: T2, His-tagged human HER3; assay: BLI (Octet QK384), antibody on anti-human IgG capture tips, His-tagged human HER3 35-278 nM, global 1:1 fit; kdis Error 1.17E-04
Experimental: as §1, with “The anti-HER3 antibody clones in IgG1 format were analysed for binding affinity to human HER3. Bio-Layer Interferometry (BLI) experiments were performed using the Octet QK384 system (ForteBio). anti-Human IgG Capture (AHC) Octet sensor tips (Pall ForteBio, USA) were used to anti-HER3 antibodies (25 nM). All” for “All”

[8] = target: T2, His-tagged human HER3; assay: BLI (Octet QK384), antibody on anti-human IgG capture tips, His-tagged human HER3 in solution, global 1:1 fit, R^2 = 0.9949, kon Error 6.34E+03; Response 0.0096 / 0.1318 / 0.3036 / 0.3995 at 35 / 69 / 139 / 278 nM
Experimental: as §1, with “The anti-HER3 antibody clones in IgG1 format were analysed for binding affinity to human HER3. Bio-Layer Interferometry (BLI) experiments were performed using the Octet QK384 system (ForteBio). anti-Human IgG Capture (AHC) Octet sensor tips (Pall ForteBio, USA) were used to anti-HER3 antibodies (25 nM). All” for “All”

Kd [1]: 34 nM
B1: 10D1 comprising GASDALIE and LCKC substitutions in CH2 region (antibody, human IgG1, kappa)
heavy: DVQLQESGPDLVKPSQSLSLTCTVTGYSITSGYSWHWIRQFPGNKLEWMGSIHYSGGTNYNPSLKSRISITRDTSKNQFFLQLNSVTTEDTATYFCARMTTAPRYPFDYWGQGTTLTVSSASTKGPSVFPLAPSSKSTSGGTAALGCLVKDYFPEPVTVSWNSGALTSGVHTFPAVLQSSGLYSLSSVVTVPSSSLGTQTYICNVNHKPSNTKVDKKVEPKSCDKTHTCPPCPAPELLAGPDVFCFPPKPKDTLMISRTPEVTCVVVDVSHEDPEVKFNWYVDGVEVHNAKTKPREEQYNSTYRVVSVLTVLHQDWLNGKEYKCKVSNKALPLPEECTISKAKGQPREPQVYTLPPSRDELTKNQVSLTCLVKGFYPSDIAVEWESNGQPENNYKTTPPVLDSDGSFFLYSKLTVDKSRWQQGNVFSCSVMHEALHNHYTQKSLSLSPGK
light: DIVMTQSQKFMSTSVGDRVSVTCKASQIVGSNVAWYQQKPGQSPKPLIYSASYRYSGVPDRFTASGSGTDFTLTITNVQSEDLAEYFCQQYSSHPLTFGAGTKLELKRTVAAPSVFIFPPSDEQLKSGTASVVCLLNNFYPREAKVQWKVDNALQSGNSQESVTEQDSKDSTYSLSSTLTLSKADYEKHKVYACEVTHQGLSSPVTKSFNRGEC
notes: also called Fc engineered 10D1 variant

Kd [2]: < 0.001 nM
koff [3]: < 1e-07 s⁻¹
kon [4]: 163000 M⁻¹ s⁻¹
B2: anti-HER3 clone 10D1_c75 IgG1 (antibody, V domains shown)
VH: DVQLQEWGAGLLKPSETLSLTCAVTGYSITSGYSWHWIRQFPGNGLEWIGSIHYSGGTNYNPTLKSRITISRDTSKNQFSLKLSSVTAADTAVYFCARMTTAPRYPFDYWGQGTLVTVSS
VL: DIVMTQSPSSLSASVGDLVTITCKASQIVGSNVAWYQMKPGKSPKPLIYSASYLYFGVPSRFSGSGSGTDFTLTISSLQPEDVAEYFCQQYSSHPLTFGPGTKVEIKR
notes: Humanised 10D1 variant, IgG1/kappa

Kd [2]: 18.2 nM
koff [5]: 0.0017 s⁻¹
kon [6]: 93600 M⁻¹ s⁻¹
B3: anti-HER3 clone 10D1_c85o1 IgG1 (antibody, V domains shown)
VH: DVQLQEWGAGLLKPSETLSLTCAVTGYSITSGYSWHWIRQFPGKGLEWIGSIRYSGGTNYNPSLKSRITISRDTSKNQFSLKLGSVTAADTAVYFCARETTAPRYPFDYWGQGTLVTVSS
VL: DIVMTQSPSSLSASVGDRVTITCKASQIVGSNVAWYQQKPGKSPKPLIYSARYQYSGVPFRFSGSGSGTDFTLTISSLQPEDVATYYCQQYSSHPLTFGPGTKVEIKR
notes: Humanised 10D1 variant, IgG1/kappa; also called 10D1_c8501

Kd [2]: 1.93 nM
koff [7]: 0.000346 s⁻¹
kon [8]: 179000 M⁻¹ s⁻¹
B4: anti-HER3 clone 10D1_c77 IgG1 (antibody, V domains shown)
VH: DVQLQEWGAGLLKPSETLSLTCAVTGYSITSGYSWHWIRQFPGNGLEWIGSIHYSGGTNYNPSLKSRITISRDTSKNQFSLKLSSVTAADTAVYFCARMTTAPRYPFDYWGQGTLVTVSS
VL: VIVMTQSPSSLSASVGDRVTITCKASQIVGPNVAWYQQKPGKSPKPLIYSASYGYSDVPSRFSGSGSGTDFTLTISSLQPEDVAEYFCQQYSTHPLTFGPGTKVEIKR
notes: as for B2
